Experimental data: publication PMC6697681, “The predominance of nucleotidyl activation in bacterial phosphonate biosynthesis” (Nature Communications, 2019)

Substrate: NCCP(=O)(O)O
Assay: purified protein
Details: saturating CTP (4 mM), 7 mM MgCl2, room temperature
Excerpt: coupled pyrophosphate release assay (EnzChek, MESG/PNP), initial rates on Tde-PntC (Tde1415)

B1: Tde-PntC (Tde1415) (Treponema denticola ATCC 35405) (protein)
chain: MIKQAVILAGGLGSRLKDKTKTMPKGFLEIGGTAIVEQSVQKLLAHGIEKIVIGTGHCNEYYDNLAKKYPAIITVKNENYANTGSMGTLEVCASFVNESFLLLESDLIYDSAGLFSLINDERKNLILASGATKSGDEVYLEADEKNCLTGLSKNRDALKNIFGELVGITKLTKSTLDKMCAYAKIHHSDLPKMEYEHALLEAAKTIPVAIKRIEYFVWREIDNEDHLEMAVKNIYPHIVENEKLRAVRREVLLNPGPATTTDSVKYAQVSADICPREKAFGDLMQWLCDELKLFALASETNPDEYETVMFGCSGTGADEVMVSSCVPDTGRLLVIDNGSYGARMAKIADIYKIPMDIFKSSTYEPLDLQKLEAEFATKKYTHLACVYHETTTGLLNPLHIICPMAKKYGMVTIVDAVSAYCGMPMDLKSLGIDFMASTSNKNIQGMAGVGFVICNKAELEKTKDYPMRNYYLNLYDQYAYFAKTHQTRFTPPVQTMYALRQAVLETKQETVQKRYERYTACWNILVAAIKKLGLKMLVKEEHQSHFITAILEPETPKYSFEALHDFAAEHSFTIYPGKLGNIDTFRIANIGDIQPEEMRRFTVKLKEYMNGIGVGV
Work on B1 yielded a Km of 16 ± 5 µM.
